This is an account of results in article PMC5951830, “CO2-sensitive tRNA modification associated with human mitochondrial disease” (Nature Communications, 2018).

Substrate in series [1]: O=C(O)O
Briefly: purified protein. The settings on record: YRDC alone, Tricine-NaOH pH 8.5, 10 mM MgCl2, ATP, L-Thr, 37 °C, bicarbonate 10-80 mM.

Substrate in series [2]: Nc1ncnc2c1ncn2[C@@H]1O[C@H](COP(=O)(O)OP(=O)(O)OP(=O)(O)O)[C@@H](O)[C@H]1O
Briefly: purified protein. Type of series: biochemical, Homo sapiens. As to conditions: YRDC alone, Tricine-NaOH pH 8.5, 10 mM MgCl2, [14C]L-Thr, NaHCO3, 37 °C, ATP 0.1-0.8 mM.

The Km is the substrate concentration at which the rate is half of its maximum.

B1: YRDC (Homo sapiens) (protein)
chain: SVGLSEGPAGSRSGRLFRPPSPAPAAPGARLLRLPGSGAVQAASPERAGWTEALRAAVAELRAGAVVAVPTDTLYGLACAASCSAALRAVYRLKGRSEAKPLAVCLGRVADVYRYCRVRVPEGLLKDLLPGPVTLVMERSEELNKDLNPFTPLVGIRIPDHAFMQDLAQMFEGPLALTSANLSSQASSLNVEEFQDLWPQLSLVIDGGQIGDGQSPECRLGSTVVDLSVPGKFGIIRPGCALESTTAILQQKYGLLPSHASYL
notes: recombinant from E. coli Rosetta(DE3), His6-SUMO tag removed
Turning to B1, the Km in “purified protein [1]” turned out to be 13 mM. Also, in the series “purified protein [2]”, the Km came out at 0.17 ± 0.22 mM and the kcat entry was “(3.9 ± 2.23) × 10^-2 s^-1”.
